Assay results as given in PMC10681732.

Key:
RIG-I CTD WT (crystal) = molecular target: T1, RIG-I CTD WT (crystal) (human, UniProt O95786 802-925); test: X-ray crystallography
T1 sequence: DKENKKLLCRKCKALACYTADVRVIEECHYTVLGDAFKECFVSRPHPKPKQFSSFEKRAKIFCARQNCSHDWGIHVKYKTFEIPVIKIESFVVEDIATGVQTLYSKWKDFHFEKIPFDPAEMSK

[1] = molecular target: T2, RIG-I CTD I875A (crystal) (human, UniProt O95786 802-925, I875A); test: X-ray crystallography
T2 sequence: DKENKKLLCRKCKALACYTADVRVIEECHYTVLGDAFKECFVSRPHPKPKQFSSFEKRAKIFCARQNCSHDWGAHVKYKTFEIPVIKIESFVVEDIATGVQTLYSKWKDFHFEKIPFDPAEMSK

| Binder | binding result (RIG-I CTD WT (crystal)) | binding result [1] |
| --- | --- | --- |
| OH-dsRNA (crystallization) (dsRNA) RNA 1: GACGCUAGCGUC RNA 2: GACGCUAGCGUC | binds |  |
| p-dsRNA (crystallization) (dsRNA, 5'-monophosphate) RNA 1: GACGCUAGCGUC RNA 2: GACGCUAGCGUC |  | binds |
